In patent publication US20040109854A1:

Molecular target: TRAF6 dm (amino acids 1-274) fused to the GAL4 DNA binding domain (pGBT9-TRAF6 dm) (yeast; human) (UniProt P04386)
Assay: cell-based or functional assay

For “recombinant TRAF6-inhibiting protein fused with the transcription activation domain of GAL4 (full length cDNA in pGAD424, expressed in yeast Y190) (from UniProt Q8TD23 1-568)”, which β-galactosidase activity titer (liquid β-galactosidase assay, yeast two-hybrid) is on record?
Its β-galactosidase activity titer (liquid β-galactosidase assay, yeast two-hybrid) is 21 unit.
